In article PMC6510891, “Functional duplication of Rap1 in methylotrophic yeasts” one finds binding result and Kd data, which are given here for twelve molecules.

Series [1] deals with T1, HpRap1B (Hansenula polymorpha DL-1, UniProt W1QDN2 1-576).
T1 sequence: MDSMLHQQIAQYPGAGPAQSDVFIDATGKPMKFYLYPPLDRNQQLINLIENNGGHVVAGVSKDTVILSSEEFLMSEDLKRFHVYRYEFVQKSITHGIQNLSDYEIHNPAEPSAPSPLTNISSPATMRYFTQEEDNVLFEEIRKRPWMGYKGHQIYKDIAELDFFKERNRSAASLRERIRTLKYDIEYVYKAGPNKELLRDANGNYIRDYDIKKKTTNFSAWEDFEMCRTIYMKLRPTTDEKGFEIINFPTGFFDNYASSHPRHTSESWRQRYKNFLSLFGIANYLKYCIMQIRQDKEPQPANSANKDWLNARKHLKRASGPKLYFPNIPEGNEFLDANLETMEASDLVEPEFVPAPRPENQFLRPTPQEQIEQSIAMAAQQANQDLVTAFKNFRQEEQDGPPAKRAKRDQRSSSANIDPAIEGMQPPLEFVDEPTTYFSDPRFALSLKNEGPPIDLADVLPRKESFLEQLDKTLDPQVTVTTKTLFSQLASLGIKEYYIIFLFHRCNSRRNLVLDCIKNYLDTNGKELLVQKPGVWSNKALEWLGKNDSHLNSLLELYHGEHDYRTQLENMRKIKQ
Kind of series: competition SPR; score ++ vs PICKU surface; SPR: 10 mM HEPES-NaOH pH 7.5, 150 mM NaCl, 0.5 mM DTT, 0.05% Tween 20, 1 mg/ml BSA, 0.02 mg/ml salmon sperm DNA; competition 2 nM protein with 20 or 200 nM competitor. EMSA: 20 mM HEPES-NaOH pH 7.5, 50 mM NaCl, 0.2 mg/ml BSA, 5% glycerol, 0.1 mg/ml salmon sperm DNA, room temperature. The following applies: protein: recombinant; blunt. Background: In EMSA bound probe runs differently from free probe, usually more slowly.

In series [2] the target is T2, HpRap1A (Hansenula polymorpha DL-1, UniProt W1Q7Z6 1-613).
T2 sequence: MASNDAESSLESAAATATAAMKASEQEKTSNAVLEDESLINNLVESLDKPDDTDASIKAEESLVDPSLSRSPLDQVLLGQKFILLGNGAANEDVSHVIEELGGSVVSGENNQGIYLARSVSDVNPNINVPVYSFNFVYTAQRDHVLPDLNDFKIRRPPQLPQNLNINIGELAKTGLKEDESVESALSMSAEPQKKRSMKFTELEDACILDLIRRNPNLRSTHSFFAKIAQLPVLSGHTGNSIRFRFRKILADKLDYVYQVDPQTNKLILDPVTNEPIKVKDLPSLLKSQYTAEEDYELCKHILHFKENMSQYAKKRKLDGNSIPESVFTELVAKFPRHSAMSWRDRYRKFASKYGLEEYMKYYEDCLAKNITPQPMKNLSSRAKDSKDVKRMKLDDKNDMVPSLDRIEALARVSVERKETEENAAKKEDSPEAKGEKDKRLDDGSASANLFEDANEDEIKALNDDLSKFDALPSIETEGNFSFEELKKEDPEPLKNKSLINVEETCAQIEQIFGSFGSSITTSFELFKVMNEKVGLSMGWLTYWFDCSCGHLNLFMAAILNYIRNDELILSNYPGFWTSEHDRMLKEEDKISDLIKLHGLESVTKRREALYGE
Kind of series: competition SPR; score - vs VIIrAbs surface; SPR: 10 mM HEPES-NaOH pH 7.5, 150 mM NaCl, 0.5 mM DTT, 0.05% Tween 20, 1 mg/ml BSA, 0.02 mg/ml salmon sperm DNA; competition 2 nM protein with 20 or 200 nM competitor. EMSA: 20 mM HEPES-NaOH pH 7.5, 50 mM NaCl, 0.2 mg/ml BSA, 5% glycerol, 0.1 mg/ml salmon sperm DNA, room temperature. The settings on record: protein: recombinant; blunt.

In series [3] the target is T1, HpRap1B. Kind of series: SPR; SPR: 10 mM HEPES-NaOH pH 7.5, 150 mM NaCl, 0.5 mM DTT, 0.05% Tween 20, 1 mg/ml BSA, 0.02 mg/ml salmon sperm DNA; competition 2 nM protein with 20 or 200 nM competitor. EMSA: 20 mM HEPES-NaOH pH 7.5, 50 mM NaCl, 0.2 mg/ml BSA, 5% glycerol, 0.1 mg/ml salmon sperm DNA, room temperature. The following applies: protein: recombinant; 3' overhang 20 nt on strand 2. (In general: In SPR one partner is held on a chip, and binding of the other changes the refractive index at the surface.)

The target in series [4] is T2, HpRap1A. The experiment in a line: SPR; kinetic fit; equilibrium Kd 12±3; SPR: 10 mM HEPES-NaOH pH 7.5, 150 mM NaCl, 0.5 mM DTT, 0.05% Tween 20, 1 mg/ml BSA, 0.02 mg/ml salmon sperm DNA; competition 2 nM protein with 20 or 200 nM competitor. EMSA: 20 mM HEPES-NaOH pH 7.5, 50 mM NaCl, 0.2 mg/ml BSA, 5% glycerol, 0.1 mg/ml salmon sperm DNA, room temperature. The following applies: protein: recombinant; 3' overhang 20 nt on strand 2.

In series [5] the target is T2, HpRap1A. The experiment in a line: SPR; SPR: 10 mM HEPES-NaOH pH 7.5, 150 mM NaCl, 0.5 mM DTT, 0.05% Tween 20, 1 mg/ml BSA, 0.02 mg/ml salmon sperm DNA; competition 2 nM protein with 20 or 200 nM competitor. EMSA: 20 mM HEPES-NaOH pH 7.5, 50 mM NaCl, 0.2 mg/ml BSA, 5% glycerol, 0.1 mg/ml salmon sperm DNA, room temperature. The following applies: protein: recombinant; 3' overhang 20 nt on strand 2.

Series [6] has as its target T1, HpRap1B. Kind of series: SPR; kinetic fit; SPR: 10 mM HEPES-NaOH pH 7.5, 150 mM NaCl, 0.5 mM DTT, 0.05% Tween 20, 1 mg/ml BSA, 0.02 mg/ml salmon sperm DNA; competition 2 nM protein with 20 or 200 nM competitor. EMSA: 20 mM HEPES-NaOH pH 7.5, 50 mM NaCl, 0.2 mg/ml BSA, 5% glycerol, 0.1 mg/ml salmon sperm DNA, room temperature. The following applies: protein: recombinant; 3' overhang 20 nt on strand 2.

For series [7], the target named is T2, HpRap1A. The series is described as above. The following applies: protein: recombinant; 3' overhang 20 nt on strand 2.
In series [8] the target is T1, HpRap1B. The experiment in a line: SPR; kinetic fit; equilibrium Kd 1.7±0.2; SPR: 10 mM HEPES-NaOH pH 7.5, 150 mM NaCl, 0.5 mM DTT, 0.05% Tween 20, 1 mg/ml BSA, 0.02 mg/ml salmon sperm DNA; competition 2 nM protein with 20 or 200 nM competitor. EMSA: 20 mM HEPES-NaOH pH 7.5, 50 mM NaCl, 0.2 mg/ml BSA, 5% glycerol, 0.1 mg/ml salmon sperm DNA, room temperature. The settings on record: protein: recombinant; 3' overhang 20 nt on strand 2.

Series [9] has as its target T2, HpRap1A. The experiment in a line: SPR; kinetic fit; equilibrium Kd 1.8±0.5; SPR: 10 mM HEPES-NaOH pH 7.5, 150 mM NaCl, 0.5 mM DTT, 0.05% Tween 20, 1 mg/ml BSA, 0.02 mg/ml salmon sperm DNA; competition 2 nM protein with 20 or 200 nM competitor. EMSA: 20 mM HEPES-NaOH pH 7.5, 50 mM NaCl, 0.2 mg/ml BSA, 5% glycerol, 0.1 mg/ml salmon sperm DNA, room temperature. The following applies: protein: recombinant; 3' overhang 20 nt on strand 2.

Series [10] addresses T1, HpRap1B. Kind of series: SPR; kinetic fit; equilibrium Kd 1.9±0.1; SPR: 10 mM HEPES-NaOH pH 7.5, 150 mM NaCl, 0.5 mM DTT, 0.05% Tween 20, 1 mg/ml BSA, 0.02 mg/ml salmon sperm DNA; competition 2 nM protein with 20 or 200 nM competitor. EMSA: 20 mM HEPES-NaOH pH 7.5, 50 mM NaCl, 0.2 mg/ml BSA, 5% glycerol, 0.1 mg/ml salmon sperm DNA, room temperature. The following applies: protein: recombinant; 3' overhang 20 nt on strand 2.

Series [11] concerns the target T2, HpRap1A. Kind of series: SPR; kinetic fit; equilibrium Kd 38±15; SPR: 10 mM HEPES-NaOH pH 7.5, 150 mM NaCl, 0.5 mM DTT, 0.05% Tween 20, 1 mg/ml BSA, 0.02 mg/ml salmon sperm DNA; competition 2 nM protein with 20 or 200 nM competitor. EMSA: 20 mM HEPES-NaOH pH 7.5, 50 mM NaCl, 0.2 mg/ml BSA, 5% glycerol, 0.1 mg/ml salmon sperm DNA, room temperature. The settings on record: protein: recombinant; 3' overhang 20 nt on strand 2.

In series [12] the target is T1, HpRap1B. Kind of series: SPR; kinetic fit; equilibrium Kd 65±2; SPR: 10 mM HEPES-NaOH pH 7.5, 150 mM NaCl, 0.5 mM DTT, 0.05% Tween 20, 1 mg/ml BSA, 0.02 mg/ml salmon sperm DNA; competition 2 nM protein with 20 or 200 nM competitor. EMSA: 20 mM HEPES-NaOH pH 7.5, 50 mM NaCl, 0.2 mg/ml BSA, 5% glycerol, 0.1 mg/ml salmon sperm DNA, room temperature. The following applies: protein: recombinant; 3' overhang 20 nt on strand 2.

B1: CANAR (competitor) (dsDNA)
DNA 1: GGTGTTGGGTGTTGGGTGTTGGG
DNA 2: CCCAACACCCAACACCCAACACC
Consider B1, for which the binding result in the series with HpRap1B [1] was “binds”; with HpRap1A [2], “no binding”.

B2: RPS0a (dsDNA)
DNA 1: AGAGGGCTGTGCACGGATGCTAT
DNA 2: ATAGCATCCGTGCACAGCCCTCTCCTCTACGTCCTCCTGCTCC
As for B2, the binding result in the series with HpRap1B [3] is “no binding”. Besides, in the series with HpRap1A [4], the Kd is 10 ± 4 nM.

B3: rnd1 (SPR) (dsDNA)
DNA 1: ACGACTCACTGTAGATACGACTCACTGTAGAT
DNA 2: ATCTACAGTGAGTCGTATCTACAGTGAGTCGTCCTCTACGTCCTCCTGCTCC
In the case of B3, the binding result in the series with HpRap1B [3] and with HpRap1A [5] was “no binding” throughout.

B4: SACCE (competitor) (dsDNA)
DNA 1: GTGTGTGGGTGTGTGGGTGTGTG
DNA 2: CACACACCCACACACCCACACAC
Take B4: in the series with HpRap1B [1], the binding result is listed as “binds”.

B5: PICME (dsDNA)
DNA 1: TAGAACTAGGTGTGCGGGGTATAATAG
DNA 2: CTATTATACCCCGCACACCTAGTTCTA
For B5, the values for the binding result in the series with HpRap1B [1] and with HpRap1A [2] were “binds” and “no binding”, respectively.

B6: RPS14 (dsDNA)
DNA 1: GTGTTCAGGTGTGAGGTGTGTTT
DNA 2: AAACACACCTCACACCTGAACACCCTCTACGTCCTCCTGCTCC
For the molecule B6, the binding result with HpRap1A [5] is “no binding”. In the series with HpRap1B [6], the Kd was found to be 0.048 ± 0.007 nM.

B7: RPS16 (dsDNA)
DNA 1: CAAACCCCGTGTAAGGGTGCCTA
DNA 2: TAGGCACCCTTACACGGGGTTTGCCTCTACGTCCTCCTGCTCC
B7: the binding result with HpRap1B [3] is reported as “no binding”. Also, the equilibrium dissociation constant (Kd) with HpRap1A [7] was 0.5 ± 0.08 nM.

B8: RPS0b (dsDNA)
DNA 1: ATTTCTTGGTGCGAGGGGGCTCT
DNA 2: AGAGCCCCCTCGCACCAAGAAATCCTCTACGTCCTCCTGCTCC
For the molecule B8, the binding result with HpRap1A [5] is “no binding”. Moreover, in the series with HpRap1B [8], the Kd came out at 1.5 ± 0.4 nM.

B9: PICKU (SPR) (dsDNA)
DNA 1: TGAACTAGGAGCGAGGTGTGTTAC
DNA 2: GTAACACACCTCGCTCCTAGTTCACCTCTACGTCCTCCTGCTCC
Take B9: the binding result in the series with HpRap1A [5] is given as “no binding”. For the same molecule, in the series with HpRap1B [6], the Kd was 0.27 ± 0.08 nM.

B10: RPL5a (dsDNA)
DNA 1: CTTGTGTGGTGCAGGGGTGGCAG
DNA 2: CTGCCACCCCTGCACCACACAAGCCTCTACGTCCTCCTGCTCC
On to B10, for which the Kd with HpRap1A [9] stood at 1.4 ± 0.3 nM; in the series with HpRap1B [10], 2 nM.

B11: SACCE (SPR) (dsDNA)
DNA 1: GTGTGTGGGTGTGTGGGTGTGTG
DNA 2: CACACACCCACACACCCACACACCCTCTACGTCCTCCTGCTCC
For the molecule B11, in the series with HpRap1A [11], the dissociation constant (Kd) turned out to be 39 ± 15 nM.

B12: VIIrAbs (SPR) (dsDNA)
DNA 1: GGCAGGCGGTGTAGGGATGCGGC
DNA 2: GCCGCATCCCTACACCGCCTGCCCCTCTACGTCCTCCTGCTCC
As for B12, the equilibrium dissociation constant (Kd) is 0.28 ± 0.09 nM in the series with HpRap1A [7] and 64 ± 2 nM with HpRap1B [12].

By Kd is commonly meant the constant that tells how readily two partners part at equilibrium.
